Data from PMC10300122, “K235 acetylation couples with PSPC1 to regulate the m^6A demethylation activity of ALKBH5 and tumorigenesis” (Nature Communications, 2023).

Molecular target: T1, recombinant PSPC1-His (UniProt Q8WXF1 1-523)
T1 construct: paraspeckle component 1 (PSPC1) cloned into the pET 26b vector; source: E. coli BL21 (DE3), purified (His-tag Protein Purification Kit)
T1 sequence (looked up): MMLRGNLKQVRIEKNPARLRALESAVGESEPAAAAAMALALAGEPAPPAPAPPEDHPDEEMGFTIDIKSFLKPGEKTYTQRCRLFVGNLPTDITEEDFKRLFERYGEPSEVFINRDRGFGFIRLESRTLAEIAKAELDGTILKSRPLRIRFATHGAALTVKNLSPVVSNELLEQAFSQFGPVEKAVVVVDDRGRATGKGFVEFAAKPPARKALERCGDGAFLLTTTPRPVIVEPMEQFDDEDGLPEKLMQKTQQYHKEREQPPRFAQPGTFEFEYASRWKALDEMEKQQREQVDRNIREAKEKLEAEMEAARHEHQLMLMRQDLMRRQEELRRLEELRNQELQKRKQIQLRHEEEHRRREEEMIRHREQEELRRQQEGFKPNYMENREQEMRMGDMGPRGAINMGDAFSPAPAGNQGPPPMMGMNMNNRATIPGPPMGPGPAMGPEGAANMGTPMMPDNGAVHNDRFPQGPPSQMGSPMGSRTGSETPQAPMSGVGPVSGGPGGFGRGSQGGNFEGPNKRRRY
Experiment: pull-down; GST pull-down: GST-ALKBH5 on glutathione beads (untreated or K235-acetylated by immunopurified KAT8) incubated with PSPC1-His at 4 °C for 1 h; washed with 20 mM HEPES pH 7.6, 0.1 M KCl, 0.1 μM EDTA, 10% glycerol, 0.02% NP-40; western blot
Details: both partners purified

B1: recombinant GST-ALKBH5 (enzyme, UniProt Q6P6C2 1-394, looked up)
chain: MAAASGYTDLREKLKSMTSRDNYKAGSREAAAAAAAAVAAAAAAAAAAEPYPVSGAKRKYQEDSDPERSDYEEQQLQKEEEARKVKSGIRQMRLFSQDECAKIEARIDEVVSRAEKGLYNEHTVDRAPLRNKYFFGEGYTYGAQLQKRGPGQERLYPPGDVDEIPEWVHQLVIQKLVEHRVIPEGFVNSAVINDYQPGGCIVSHVDPIHIFERPIVSVSFFSDSALCFGCKFQFKPIRVSEPVLSLPVRRGSVTVLSGYAADEITHCIRPQDIKERRAVIILRKTRLDAPRLETKSLSSSVLPPSYASDRLSGNNRDPALKPKRSHRKADPDAAHRPRILEMDKEENRRSVLLPTHRRRGSFSSENYWRKSYESSEDCSEAAGSPARKVKMRRH
notes: AlkB homolog 5 (ALKBH5) cloned into the pGEX vector; also called recombinant ALKBH5; source: E. coli BL21 (DE3), purified (Glutathione Sepharose)
- binding result: binds

B2: recombinant K235-acetylated GST-ALKBH5 (enzyme, UniProt Q6P6C2 1-394, looked up)
chain: B1 chain
modifications: acetyl-lysine at 235
notes: AlkB homolog 5 (ALKBH5) cloned into the pGEX vector; The same construct as m6 after treatment with KAT8; source: E. coli BL21 (DE3), purified (Glutathione Sepharose), then K235-acetylated by immunopurified KAT8
- binding result: binds
